Test results reported in US7026443.
Like-named read-outs stand apart in the source and are kept apart here.

Columns and labels:
HLA-A*0301 (human) [1] = target: HLA-A*0301 (human)
HLA-A*1101 (human) [2] = target: HLA-A*1101 (human)
HLA-A*0301 (human) [3] = target: HLA-A*0301 (human); remark: listed apart in the source
HLA-A*1101 (human) [4] = target: HLA-A*1101 (human); remark: listed apart in the source
HLA-A*2402 (human) [5] = target: HLA-A*2402 (human)
HLA-A*2402 (human) [6] = target: HLA-A*2402 (human); remark: listed apart in the source
HLA-A*0201 (human) = assay: inhibition of binding of 125I-labelled standard peptide to purified HLA, gel filtration
[7] = remark: other sources report otherwise

## CIDFYSRIR (modifications not checked) [HPV45 E6 peptide … (position 68, 9 amino acids)]
HLA-A*0301 (human) [1]
  binding affinity ratio (IC50 of standard peptide / IC50 of test peptide): 0.001
HLA-A*1101 (human) [2]
  relative binding ratio (IC50 of standard peptide / IC50 of test peptide) (ratio to standard peptide): 0.0001
HLA-A*0301 (human) [3]
  relative binding ratio (IC50 of standard peptide / IC50 of test peptide) (ratio to standard peptide): 0.0001
HLA-A*1101 (human) [4]
  relative binding ratio (IC50 of standard peptide / IC50 of test peptide) (ratio to standard peptide): 0.0001

## LIRCLRCQK (modifications not checked) [HPV45 E6 peptide … (position 102, 9 amino acids)]
HLA-A*0301 (human) [1]
  binding affinity ratio (IC50 of standard peptide / IC50 of test peptide): 0.019
HLA-A*1101 (human) [2]
  relative binding ratio (IC50 of standard peptide / IC50 of test peptide) (ratio to standard peptide): 0.0012
HLA-A*0301 (human) [3]
  relative binding ratio (IC50 of standard peptide / IC50 of test peptide) (ratio to standard peptide): 0.019
HLA-A*1101 (human) [4]
  relative binding ratio (IC50 of standard peptide / IC50 of test peptide) (ratio to standard peptide): 0.0012

## LLIRCLRCQK (modifications not checked) [HPV45 E6 peptide … (position 101, 10 amino acids)]
HLA-A*0301 (human) [1]
  binding affinity ratio (IC50 of standard peptide / IC50 of test peptide): 0.047
HLA-A*1101 (human) [2]
  relative binding ratio (IC50 of standard peptide / IC50 of test peptide) (ratio to standard peptide): 0.12
HLA-A*0301 (human) [3]
  relative binding ratio (IC50 of standard peptide / IC50 of test peptide) (ratio to standard peptide): 0.047
HLA-A*1101 (human) [4]
  relative binding ratio (IC50 of standard peptide / IC50 of test peptide) (ratio to standard peptide): 0.12

## CYSLYGTTL (modifications not checked) [HPV16 E6 87 …]
HLA-A*2402 (human) [5]
  binding affinity ratio (IC50 of standard peptide / IC50 of test peptide): 0.046
HLA-A*2402 (human) [6]
  relative binding ratio (IC50 of standard peptide / IC50 of test peptide) (ratio to standard peptide): 0.046

## DFAFRDLCI (modifications not checked) [HPV16 E6 51 …]
HLA-A*2402 (human) [5]
  binding affinity ratio (IC50 of standard peptide / IC50 of test peptide): 0.0003
HLA-A*2402 (human) [6]
  relative binding ratio (IC50 of standard peptide / IC50 of test peptide) (ratio to standard peptide): 0.0003

## PYAVCDKCL (modifications not checked) [HPV16 E6 66 …]
HLA-A*2402 (human) [5]
  relative binding ratio (IC50 of standard peptide / IC50 of test peptide): 0.0078
HLA-A*2402 (human) [6]
  relative binding ratio (IC50 of standard peptide / IC50 of test peptide) (ratio to standard peptide): 0.0078

## RFHNIRGRW (modifications not checked) [HPV16 E6 131 …]
HLA-A*2402 (human) [5]; [7]
  relative binding ratio (IC50 of standard peptide / IC50 of test peptide): 0.022
HLA-A*2402 (human) [6]; [7]
  relative binding ratio (IC50 of standard peptide / IC50 of test peptide) (ratio to standard peptide): 0.022

## VYCKQQLL (modifications not checked) [HPV16 E6 38 VYCKQQLL]
HLA-A*2402 (human) [5]
  relative binding ratio (IC50 of standard peptide / IC50 of test peptide): 0.0069
HLA-A*2402 (human) [6]
  relative binding ratio (IC50 of standard peptide / IC50 of test peptide) (ratio to standard peptide): 0.0069

## FYSRIREL (modifications not checked) [FYSRIREL (HPV18 E6, position 71, 8 amino acids)]
HLA-A*2402 (human) [6]
  relative binding ratio (IC50 of standard peptide / IC50 of test peptide): 0.026

## LYNLLIRCL (modifications not checked) [… (HPV18 E6, position 98, 9 amino acids)]
HLA-A*2402 (human) [6]
  relative binding ratio (IC50 of standard peptide / IC50 of test peptide): 0.0001

## PYKLPDLCTEL (modifications not checked) [… (HPV18 E6, position 11, 11 amino acids)]
HLA-A*2402 (human) [6]
  relative binding ratio (IC50 of standard peptide / IC50 of test peptide): 0.0064

## VFEFAFKDLF (modifications not checked) [… (HPV18 E6, position 44, 10 amino acids)]
HLA-A*2402 (human) [6]
  relative binding ratio (IC50 of standard peptide / IC50 of test peptide): 0.036

## VYCKTVLEL (modifications not checked) [… (HPV18 E6, position 33, 9 amino acids)]
HLA-A*2402 (human) [6]
  relative binding ratio (IC50 of standard peptide / IC50 of test peptide): 0.022

## FYSRIREL (modifications not checked) [HPV45 E6 position 71 peptide FYSRIREL (SEQ ID NO: 46116)]
HLA-A*2402 (human) [6]
  binding affinity ratio (IC50 of standard peptide / IC50 of test peptide): 0.026

## LYNLLIRCL (modifications not checked) [HPV45 E6 position 98 peptide … (SEQ ID NO: 46118)]
HLA-A*2402 (human) [6]
  binding affinity ratio (IC50 of standard peptide / IC50 of test peptide): 0.0001

## PYKLPDLCTEL (modifications not checked) [HPV45 E6 position 11 peptide … (SEQ ID NO: 46119)]
HLA-A*2402 (human) [6]
  binding affinity ratio (IC50 of standard peptide / IC50 of test peptide): 0.0064

## TIHDIILECV (modifications not checked) [HPV16 E6 peptide … (position 29, 10 amino acids)]
HLA-A*0201 (human)
  relative binding ratio (IC50 of standard peptide / IC50 of test peptide): 0.021

## DIRTLEDL (modifications not checked) [HPV16 E7 peptide DIRTLEDL (position 75, 8 amino acids)]
HLA-A*0201 (human)
  relative binding ratio (IC50 of standard peptide / IC50 of test peptide): 0.0001

## DLLMGTLGI (modifications not checked) [HPV16 E7 peptide … (position 81, 9 amino acids)]
HLA-A*0201 (human)
  relative binding ratio (IC50 of standard peptide / IC50 of test peptide): 0.0002

## DLLMGTLGIV (modifications not checked) [HPV16 E7 peptide … (position 81, 10 amino acids)]
HLA-A*0201 (human); [7]
  relative binding ratio (IC50 of standard peptide / IC50 of test peptide): 0.0005

## DLQPETTDL (modifications not checked) [HPV16 E7 peptide … (position 14, 9 amino acids)]
HLA-A*0201 (human)
  relative binding ratio (IC50 of standard peptide / IC50 of test peptide): 0.0003

## HVDIRTLEDL (modifications not checked) [HPV16 E7 peptide … (position 73, 10 amino acids)]
HLA-A*0201 (human)
  relative binding ratio (IC50 of standard peptide / IC50 of test peptide): 0.0001

## LLMGTLGI (modifications not checked) [HPV16 E7 peptide LLMGTLGI (position 82, 8 amino acids)]
HLA-A*0201 (human)
  relative binding ratio (IC50 of standard peptide / IC50 of test peptide): 0.0008

## LMGTLGIV (modifications not checked) [HPV16 E7 peptide LMGTLGIV (position 83, 8 amino acids)]
HLA-A*0201 (human)
  relative binding ratio (IC50 of standard peptide / IC50 of test peptide): 0.0001

## MLDLQPET (modifications not checked) [HPV16 E7 peptide MLDLQPET (position 12, 8 amino acids)]
HLA-A*0201 (human); [7]
  relative binding ratio (IC50 of standard peptide / IC50 of test peptide): 0.0001

## MLDLQPETT (modifications not checked) [HPV16 E7 peptide … (position 12, 9 amino acids)]
HLA-A*0201 (human); [7]
  relative binding ratio (IC50 of standard peptide / IC50 of test peptide): 0.0028

## MLDLQPETTDL (modifications not checked) [HPV16 E7 peptide … (position 12, 11 amino acids)]
HLA-A*0201 (human)
  relative binding ratio (IC50 of standard peptide / IC50 of test peptide): 0.0005
